Laboratory results reported in patent publication US20110313230A1 (LUDWIG INSTITUTE FOR CANCER RESEARCH, published 2011).
Where no end group is shown, it is not given here. The star is where a group is joined. Biotin = O=C1N[C@H]2[C@H](CS[C@H]2CCCCC(=O)*)N1

Tests used:
[1] = target: T1, EGFR fragment 1-176 displayed on yeast (human, UniProt P00533 25-200); assay: flow cytometry on yeast-displayed, c-myc-tagged EGFR fragment (native); fragment printed '1-716' on the sheet, 1-176 in the text
T1 construct: yeast surface display, C-terminal c-myc tag
Method: (§1) Briefly, transformed colonies were grown at 30° C. in minimal media containing yeast nitrogen base, casein hydrolysate, dextrose, and phosphate buffer pH 7.4, on a shaking platform for approximately one day until an OD₆₀₀ of 5-6 was reached. […] Cultures were then stored at 4° C. until analysis. […] The cells were then washed with ice cold FACS buffer and incubated with phycoerythrin-labelled anti-mouse IgG (1:25 dilution), in a final volume of 50 μl for 1 h at 4° C., protected from light. After washing the yeast cells with ice-cold FACS buffer, fluorescence data was obtained with a Coulter Epics XL flow cytometer (Beckman-Coulter), and analyzed with WinMDI cytometry software (J. Trotter, Scripps University). For determination of linear versus conformational epitopes, yeast cells were heated at 80° C. for 30 min, then chilled on ice 20 min prior to labeling with antibodies.

[2] = target: T2, EGFR fragment 1-294 displayed on yeast (human, UniProt P00533 25-318); assay: flow cytometry on yeast-displayed, c-myc-tagged EGFR fragment (native), indirect immunofluorescence
T2 construct: yeast surface display, C-terminal c-myc tag
Method: as §1

[3] = target: T3, Peptide C: LEEKKGNYVVTDH(K-Biot)-OH (biotin on the added C-terminal Lys (K-Biot)); assay: BIAcore, Peptide C on streptavidin chip
T3 construct: also called C-terminal biotinylated de2-7 peptide
T3 peptide: LEEKKGNYVVTDHK
Method: Serial dilutions of mAbs were tested for reactivity with the peptide. Blocking experiments using non-biotinylated peptide were performed to assess specificity.

[4] = target: T4, de2-7 EGFR unique junctional peptide (human); assay: dot-blot immune stain
T4 construct: non-biotinylated; also called Junction Peptide
T4 peptide: LEEKKGNYVVTDH-OH
Method: Dot-blot immune stain experiments were also performed. Serial dilutions of peptide were spotted in 0.5 μl onto a PVDF or nitrocellulose membranes.

[5] = target: T5, biotinylated de2-7 specific peptide Biotin-LEEKKGNYVVTDH (human); assay: ELISA on biotinylated peptide on streptavidin plates
T5 construct: also called unique de2-7 EGFR peptide
T5 peptide: Biotin-LEEKKGNYVVTDH
Method: Two types of ELISA were used to determine the specificity of the antibodies. […] Antibodies were added to wells in triplicate at increasing concentration in 2% HSA in phosphate-buffered saline (PBS).
Antibodies were bound and detected as in the first assay.

[6] = target: T6, EGFR fragment 475-621 displayed on yeast (human, UniProt P00533 499-645); assay: flow cytometry on yeast-displayed, c-myc-tagged EGFR fragment (native)
T6 construct: yeast surface display, C-terminal c-myc tag
Method: as §1

[7] = target: T7, anti-idiotype antibody LMH-12; assay: sandwich ELISA: plate coated with 10 µg/ml LMH-12, detection with biotinylated LMH-12 (10 µg/ml), avidin-HRP and ABTS
T7 construct: mouse IgG1 kappa

B1: mAb806 (antibody, V domains shown)
VH: DVQLQESGPSLVKPSQSLSLTCTVTGYSITSDFAWNWIRQFPGNKLEWMGYISYSGNTRYNPSLKSRISITRDTSKNQFFLQLNSVTIEDTATYYCVTAGRGFPYWGQGTLVTVSA
VL: DILMTQSPSSMSVSLGDTVSITCHSSQDINSNIGWLQQRPGKSFKGLIYHGTNLDDEVPSRFSGSGSGADYSLTISSLESEDFADYYCVQYAQFPWTFGGGTKLEIKR
notes: murine IgG2b
[1]
  binding result: no binding (tested: 10 µg/ml)
[2]
  binding result: no binding (tested: 10 µg/ml)
[3]
  binding result: no binding (tested: 100 nM)
[4]
  binding result: no binding
[5]
  binding result: no binding
[6]
  binding result: no binding (tested: 10 µg/ml)
[7]
  EC50 (read off the curve): ~0.07 µg/mL
